Results published in publication PMC7060258, “A new multigene HCIQ subfamily from the sea anemone Heteractis crispa encodes Kunitz-peptides exhibiting neuroprotective activity against 6-hydroxydopamine” (Scientific Reports, 2020).
No end group written: not given here.

T1: human neutrophil elastase (human, UniProt P08246 30-267)
T1 sequence (looked up): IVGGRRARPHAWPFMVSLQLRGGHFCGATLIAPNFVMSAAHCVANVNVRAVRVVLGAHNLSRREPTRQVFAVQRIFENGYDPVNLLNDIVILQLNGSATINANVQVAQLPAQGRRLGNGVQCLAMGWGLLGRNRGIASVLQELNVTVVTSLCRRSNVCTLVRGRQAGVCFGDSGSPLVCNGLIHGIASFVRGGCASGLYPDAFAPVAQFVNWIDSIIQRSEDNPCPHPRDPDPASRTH

B1: recombinant HCIQ2c1 Kunitz-type peptide from Heteractis crispa (peptide, UniProt A0A6B7FBD3 28-85, looked up)
chain: IQGNICSEPKKVGRCRGSFPRFYFDSETGKCTPFIYGGCGGNGNNFETLHACRAICRA
notes: HCIQ2c1, Kunitz-type peptide of the sea anemone Heteractis crispa; mature peptide of 58 aa (precursor 85 aa: signal peptide 22 aa, propeptide 5 aa ending in Lys-Arg at 26-27, mature peptide 58 aa); begins with Ile-Gln; measured mass 6330 Da; numbers count on: the mature protein; also called rHCIQ2c1; source: E. coli BL21 (DE3), thioredoxin fusion, purified (Ni-NTA, CNBr cleavage, RP-HPLC)

What was measured:
Settings in all cases: both partners purified
[1] = biological target: trypsin; test: enzyme inhibition (Dixon method); trypsin 208 nM, substrate BAPNA 0.6 and 1.2 mM, peptide 0–26.6 µM (rHCIQ2c1) or 0–24 µM (rHCIQ4c7); three parallel experiments
[2] = biological target: T1, human neutrophil elastase; test: SPR; Biacore 3000; peptides covalently immobilised on a CM4 chip (970 RU rHCIQ2c1, 460 RU rHCIQ4c7); proteinases 1 nM to 5 μM flowed over; 25 °C; HBS: 0.15 M NaCl, 0.01 M HEPES, pH 7.4
[3] = biological target: B1; test: as above

trypsin, sequence (P00760 24-246): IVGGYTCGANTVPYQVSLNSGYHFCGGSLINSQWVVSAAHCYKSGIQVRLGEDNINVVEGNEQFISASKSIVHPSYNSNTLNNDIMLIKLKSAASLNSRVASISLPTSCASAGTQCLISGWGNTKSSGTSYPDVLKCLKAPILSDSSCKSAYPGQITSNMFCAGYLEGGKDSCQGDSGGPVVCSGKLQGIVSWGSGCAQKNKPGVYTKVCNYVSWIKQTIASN

Binder	Ki [1]	Ka [2]	Kd [2]	koff [2]	kon [2]	Ka [3]	Kd [3]	koff [3]	kon [3]
recombinant HCIQ4c7 Kunitz-type peptide from Heteractis crispa (not fully specified; cysteine pairing not given here) IQGNICSEPKKVGRCRESFPRFYFDSETGKCTPFIYGGCGGNGNNFETLHACRAICRA	190 nM	1.05e+06 M⁻¹	955 nM	0.0114 s⁻¹	11900 M⁻¹ s⁻¹				
B1	52 nM	7.9e+06 M⁻¹	127 nM	0.00861 s⁻¹	68000 M⁻¹ s⁻¹				
pancreatic kallikrein (enzyme, Species and supplier are not given; porcine pancreatic kallikrein is assumed as the usual commercial enzyme. Limits are the active chain of the candidate entry. The natural enzyme is glycosylated …) not shown						2.04e+06 M⁻¹	490 nM	0.00379 s⁻¹	49400 M⁻¹ s⁻¹
